Legend:
[1] = biological target: Tau-LexA (Tau variant 0N4R isoform with a C-terminal LexA fusion) (Homo sapiens, UniProt P10636-6); experiment: two-hybrid
[2] = biological target: Tau (on the Western blot membrane) (Homo sapiens, UniProt P10636); experiment: far-Western, overlay or dot blot
Biotinylated Tau 2N4R = Biotinylated Tau 2N4R (Homo sapiens, UniProt P10636-8, biotin (NHS-biotin conjugates, 5 molar excess; sites not stated)); experiment: SPR
[3] = biological target: Tau 2N4R (recombinant; 15N-labelled for NMR) (Homo sapiens, UniProt P10636-8); experiment: NMR titration

B1: VHH Z70 mutant 3 (R47K), Gal4 activation domain fusion prey (VHH)
VHH: EVQLQASGGVFVQSGGSLRLSCAASGATSTFDGMGWFRQAPGKEKEFVSAISYEQGSYTYYADSVKGRFTISRDNSKNMVYLQMNSLRAEDTATYYCAPAYEGDLYAFDSYGGQGTQVTVSS
binding result [1]: binds

B2: VHH Z70 mutant 9 (P101S + G115E), Gal4 activation domain fusion prey (VHH)
VHH: EVQLQASGGVFVQSGGSLRLSCAASGATSTFDGMGWFRQAPGKEREFVSAISYEQGSYTYYADSVKGRFTISRDNSKNMVYLQMNSLRAEDTATYYCASAYEGDLYAFDSYGEQGTQVTVSS
binding result [1]: binds

B3: TAMRA-labelled VHH Z70 mutant 3 (R47K) with a terminal cysteine (VHH)
VHH: EVQLQASGGVFVQSGGSLRLSCAASGATSTFDGMGWFRQAPGKEKEFVSAISYEQGSYTYYADSVKGRFTISRDNSKNMVYLQMNSLRAEDTATYYCAPAYEGDLYAFDSYGGQGTQVTVSS
binding result [2]: binds

B4: VHH Z70 mutant 3 (R47K) (VHH)
VHH: EVQLQASGGVFVQSGGSLRLSCAASGATSTFDGMGWFRQAPGKEKEFVSAISYEQGSYTYYADSVKGRFTISRDNSKNMVYLQMNSLRAEDTATYYCAPAYEGDLYAFDSYGGQGTQVTVSS
binding result (Biotinylated Tau 2N4R): binds
binding result [3]: binds

B5: VHH Z70 mutant 14 (VHH)
VHH: EVQLQASGGVFVQSGGSLRLSCAASGATSIFDGMGWFRQAPGKEREFVSAISYGQGSYTYYADSVKGRFTISRDNSKNMVYLQMNSLRAEDTATYYCAPAYEGDLYAFDSYGEQGTQVTVSS
binding result (Biotinylated Tau 2N4R): binds
binding result [3]: binds

B6: VHH Z70 mutant 15 (R90G + P101S + G114E) (VHH)
VHH: EVQLQASGGVFVQSGGSLRLSCAASGATSTFDGMGWFRQAPGKEREFVSAISYEQGSYTYYADSVKGRFTISRDNSKNMVYLQMNSLGAEDTATYYCASAYEGDLYAFDSYEGQGTQVTVSS
binding result (Biotinylated Tau 2N4R): binds

B7: VHH Z70 mutant 5 (T96S), Gal4 activation domain fusion prey (VHH)
VHH: EVQLQASGGVFVQSGGSLRLSCAASGATSTFDGMGWFRQAPGKEREFVSAISYEQGSYTYYADSVKGRFTISRDNSKNMVYLQMNSLRAEDTASYYCAPAYEGDLYAFDSYGGQGTQVTVSS
binding result [1]: binds

B8: VHH Z70 mutant 12 (S23C + G115E), Gal4 activation domain fusion prey (VHH)
VHH: EVQLQASGGVFVQSGGSLRLCCAASGATSTFDGMGWFRQAPGKEREFVSAISYEQGSYTYYADSVKGRFTISRDNSKNMVYLQMNSLRAEDTATYYCAPAYEGDLYAFDSYGEQGTQVTVSS
binding result [1]: binds

B9: VHH Z70 mutant 20 (R47K + G115E) (VHH)
VHH: EVQLQASGGVFVQSGGSLRLSCAASGATSTFDGMGWFRQAPGKEKEFVSAISYEQGSYTYYADSVKGRFTISRDNSKNMVYLQMNSLRAEDTATYYCAPAYEGDLYAFDSYGEQGTQVTVSS
binding result (Biotinylated Tau 2N4R): binds
binding result [3]: binds

B10: VHH Z70 mutant 5 (T96S) (VHH)
VHH: EVQLQASGGVFVQSGGSLRLSCAASGATSTFDGMGWFRQAPGKEREFVSAISYEQGSYTYYADSVKGRFTISRDNSKNMVYLQMNSLRAEDTASYYCAPAYEGDLYAFDSYGGQGTQVTVSS
binding result (Biotinylated Tau 2N4R): binds
binding result [3]: binds

B11: VHH Z70 mutant 1 (G115E) (VHH)
VHH: EVQLQASGGVFVQSGGSLRLSCAASGATSTFDGMGWFRQAPGKEREFVSAISYEQGSYTYYADSVKGRFTISRDNSKNMVYLQMNSLRAEDTATYYCAPAYEGDLYAFDSYGEQGTQVTVSS
Kd (Biotinylated Tau 2N4R): 23 nM

B12: VHH Z70 mutant 9 (P101S + G115E) (VHH)
VHH: EVQLQASGGVFVQSGGSLRLSCAASGATSTFDGMGWFRQAPGKEREFVSAISYEQGSYTYYADSVKGRFTISRDNSKNMVYLQMNSLRAEDTATYYCASAYEGDLYAFDSYGEQGTQVTVSS
binding result (Biotinylated Tau 2N4R): binds
binding result [3]: binds

B13: TAMRA-labelled VHH Z70 mutant 20 (double mutation R47K + G115E) with a terminal cysteine (VHH)
VHH: EVQLQASGGVFVQSGGSLRLSCAASGATSTFDGMGWFRQAPGKEKEFVSAISYEQGSYTYYADSVKGRFTISRDNSKNMVYLQMNSLRAEDTATYYCAPAYEGDLYAFDSYGEQGTQVTVSS
binding result [2]: binds

B14: VHH Z70 mutant 14, Gal4 activation domain fusion prey (VHH)
VHH: EVQLQASGGVFVQSGGSLRLSCAASGATSIFDGMGWFRQAPGKEREFVSAISYGQGSYTYYADSVKGRFTISRDNSKNMVYLQMNSLRAEDTATYYCAPAYEGDLYAFDSYGEQGTQVTVSS
binding result [1]: binds

B15: VHH Z70 mutant 12 (S23C + G115E) (VHH)
VHH: EVQLQASGGVFVQSGGSLRLCCAASGATSTFDGMGWFRQAPGKEREFVSAISYEQGSYTYYADSVKGRFTISRDNSKNMVYLQMNSLRAEDTATYYCAPAYEGDLYAFDSYGEQGTQVTVSS
binding result (Biotinylated Tau 2N4R): binds
binding result [3]: binds

B16: VHH Z70 mutant 15 (R90G + P101S + G114E), Gal4 activation domain fusion prey (VHH)
VHH: EVQLQASGGVFVQSGGSLRLSCAASGATSTFDGMGWFRQAPGKEREFVSAISYEQGSYTYYADSVKGRFTISRDNSKNMVYLQMNSLGAEDTATYYCASAYEGDLYAFDSYEGQGTQVTVSS
binding result [1]: binds

Reference: publication doi:10.1101/2023.07.18.549252 (bioRxiv, 2023)
